Results from article PMC6792138.

Tested on: PthA4AT (7.5-repeat TAL effector) (Xanthomonas citri ssp. citri variant AT)
Experiment: PBM
Details: not stated; PBM performed as in Godoy et al. 2011

Row | Substance | binding signal
1 | PBM probes with TATAACCTT | 0.462 E-score
2 | PBM probes with TATTACCTC | 0.466 E-score
3 | PBM probes with TATCGCCTT | 0.454 E-score
4 | PBM probes with TATTACCTT | 0.481 E-score
5 | PBM probes with TTATTACCC | 0.46 E-score
6 | PBM probes with TATTACCCC | 0.458 E-score
7 | PBM probes with TTATTACCT | 0.476 E-score
8 | PBM probes with TTATCACCT | 0.464 E-score
9 | PBM probes with ATTATTACC | 0.456 E-score
10 | PBM probes with TATCACCTT | 0.476 E-score
11 | PBM probes with ATATCACCT | 0.46 E-score
